According to the DeepSol protein solubility set:

Test: soluble on expression in E. coli; label from the status in PepcDB or PDB records

Row | Sequence | soluble on expression in E. coli
1 | MDGDGDPESVSHPEEASPEEQPEEAGAEASAEEEQLREAEEEEEAEAVEYLAELPEPLLLRVLAELPATELVQACRLVCLRWKELVDGAPLWLLKCQQEGLVPEGSADEERDHWQQFYFLSKRRRNLLRNPCGEEDLEGWSDVEHGGDGWKVEELPGDNGVEFTQDDSVKKYFASSFEWCRKAQVIDLQAEGYWEELLDTTQPAIVVKDWYSGRTDAGSLYELTVRLLSENEDVLAEFATGQVAVPEDGSWMEISHTFIDYGPGVRFVRFEHGGQDSVYWKGWFGARVTNSSVWVEP | soluble
2 | MGSDKIHHHHHHMRIKAVSSLVGGEVLAEPILTEKNDILIPNGTRIKPDYVPLIESLGIESVMVEDPYENYESPNSIVDPAIFDKYVKKVRRLMESHIYHDGKSLKEFEIIANDIVHDINDMPYDVIVDIKERNSDLYEHTVMVTLLSVLVARKLKLDEKRKYNIAVGCLLHDIGLRFIVTRYKNRDFSNANPAELFEYKKHTILGYSALDEENWIAPISMKMVLSHHENMAGTGFPMKQKNKELECRIIQACDAFDSLISGMECKRICVQEAINQIKENDGGRFDNKIIKCLLSSIARYPVGTTVKTNAEEEGVVVSQTVDPENPIIMIFGNENNGKLMLHNRLNLMLDKNISILQVI | not soluble
3 | MGSDKIHHHHHHMHLSNSPNSHDPDAQARFWFARQQGQTLSEAEQQQLAEWLAANPLHQDAWRRVEEDWLAIDRYRHALNDELKKARRNRPGQHKAAFQLKRRAAAAALLVAVCIPVLYQGMTGTTTYWNTLKGEQQQITLAGGSTLNLDTATRITVTQNWFTHHVQLHEGEIYLETASSDWHTLRVSAEHYEIRDIGTRFSVRYIPDQFMVEVAEGTVEVKKQGQLVLLQAGEVLSIITGSNEWRLAALPAGDIAHWRKGLLVFNAHRLHDVLHEIARYHTVQFDLADSAIGEIQVSGRFKLDELDTNLQIIADTLKINIEHPAPGRYRLGALRQSTR | not soluble
4 | MGHHHHHHSHMFMREIELKGHIIDSFILAKVFDRTLELGGDYKVLEFDIGKKKIDTSYAKLLISGDTQQHLDQILEELQNVGANIPEIENANLKPALKDSVLPDGFYSTTNHPTHVKVNDEWIEVANPKMDAVIVVYPEEKRAETKVIRKVKKGDFVLIGHNGIRVMPPEKSREAGQLFEFMNSEVSSEKPKEAIIKRIAKEMHEIREEYKKTGTGGIAIVGGPAIIHTGGGPALAKMVELGYIQAILAGNALATHDIESALYGTSLGVNIKTAKPVTGGHKHHIYAINAINDAGNIKNAVESGVLKEGIMYQCIKNNIPYVLAGSIRDDGPIPDVITDSMVAQDKMRTTVMDKKMVIMLSTLLHSVATGNLMPSYIKTVCVDIQPSTVTKLMDRGTSQAIGVVTDVGVFLVLLLKELERLELQE | soluble
5 | MTNQKQTTHFGFKSVDWNEKEKKVAEVFHSVAKNYDRMNDLMSLGIHHLWKRYTIELSHVRPGQSVLDLAGGSGDLTRLLLQKVGDSGQVILADINAAMLHVGRDRLLDEGLFKNIRYVQGNAQCLPFADNSFHCITMGFGLRNVTDKDEALQSMYRVCKPGGKLMVLEFSTPVFPGLKPVYDWYSFNILPKIGKFVANDEASYQYLAESIRMHPDQETLKAMIERVGFEDCHYHNLSGGIVALHIAYKYLEHHHHHH | not soluble
6 | SLNEGQEMEEQFALLLETLKNQQMNEFRELFLALHIYEQGQFYQSLDEKDRQHLYNYLSPKELADMFDVIEEDNENMKDYLAEMRPSYAADMLAEMYTDNAVDLLNMLDKSQKAKYLSLLSSEEAGEIKELLHYEDETAGAIMTTEFVSIVANQTVRSAMYVLKNQADMAETIYYVYVVDQENHLVGVISLRDLIVNDDDTLIADILNERVISVHVGDDQEDVAQTIRDYDFLAVPVTDYDDHLLGIVTVDDIIDVIDDEAASDYSGLAGVDVEEVSENPLKAASK | soluble
7 | MGSDKIHHHHHHMAFTNNVMIVRHGLLAKLVKLWKENRLLEEIDRLPIELSPRKSKVRGRCCVHKERAVWKYKTLPLLGFDMQDEEDELTPLSEYAKRALFRSENKKENIMCVVDEACSSCVSVNYEITNLCRGCVARSCYMNCPKDAIRFKKNGQAEIDHETCISCGKCHQSCPYHAIVYIPIPCEEVCPVKAISKDKYGVEHIDESKCIYCGKCVNACPFGAIFEISQVFDILQRLRNKEQMVAIVAPSILAQFSAPKEKVYGAIKSLGFEEVVEVAQGAMETTRHEAEELIEKLKEGQPFMTTSCCPSYVQLAEKHIPDLKKYISSTGSPMYYTARIVKEKYPDAKIVFVGPCVAKRKEVKLDPCVDFTLTFEEVGSVLEGLGIKIEEAQPFSVLFNAVREAHGFAQSGGVINAVKVYLKDENVNAVQVANLTKKNVALLRAYAKTGKAPAQFIEVMACEGGCVTGPCTHADKTAGQKQLIKELTKF | not soluble
8 | MTGRPEDSVIDIYQRHGAAWAKLRGDRLAEGGWLDRFCELLPATASVLDIGCGSGLPIARELVRRGFDVTGVDGASTMLALFRRNLPGTPAHLADMRELALGRRFDGLLAWDSFFHLSPADQRAMFRRFQAHAAAGAALMFTSGPAEGSAIGELAGDRLYHGSLGSDDYRALLDASGFEGVDHIVEDPTCGYRTIWLARQRRLEHHHHHH | not soluble
9 | MGSDKIHHHHHHMGGLKMKVIILGSGSYSGTPKPLCTCENCTRARINPAFRRTRFSVYIEGGILIDPGPDLHYHLEKLNKEVETILITHAHFDHIFGLPDAQVFKKLTIASNPLGIKVARSLAMLAFNSEAPLGNDWDYVELKFWNEYKVNGVKVIHFPVVHSIEMAGGFLIERKNKTVAITGDTGPEIIRDSEVIDLIKGSDLLISEMTHKESIPKTHLGVNDAIELAKIVKAEQTVFAHISHSNYPQEILEKKVREAKISGIVARDFTIIEI | not soluble
10 | MAHHHHHHGSRFLIRLVPEDKDRAFKVPYNHQYYLQGLIYNAIKSSNPKLATYLHEVKGPKLFTYSLFMAEKREHPKGLPYFLGYKKGFFYFSTCVPEIAEALVNGLLMNPEVRLWDERFYLHEIKVLREPKKFNGSTFVTLSPIAVTVVRKGKSYDVPPMEKEFYSIIKDDLQDKYVMAYGDKPPSEFEMEVLIAKPKRFRIKPGIYQTAWHLVFRAYGNDDLLKVGYEVGFGEKNSLGFGMVKVEGNKTTKEAEEQEKITFNSREELKTGV | soluble
11 | MGSDKIHHHHHHMTETTSSPQHYLGWDIGGANLKVALVRPDGIAVKVIQVPCPLWQGMDRLDAAIDLALAELGGPGGAKHSVTMTGELADIFPDRASGVWEIALRTHAMLGSELCFFAGASGFVPLAQVQQHANAIASANWLASAAFVATKLQQGLFIDIGSTTADFVLLHDGRPVNRGQTDAERMQHEELVYTGVARTSLMALASRIPFAGQWQNVAAEHFATTADVYRLTGELDPAEDMAATADGAGKSMDETCRRLARMVGRDADDADKTAWVHLAQAFRQQQLAILRDAVLCNLSRNVVRPGAPFIGAGAGVFLVRELAQQLGHEFLAASSLLKAESDQARNWAGVCLPAYAVANLGITANSQERAC | not soluble
12 | MGSDKIHHHHHHEEAEAHQKPVEIQPETVKIARNSELTIVPLYTPYQKYLKASLKTDDPEMDKKYYAKYVLSYIDEIGEQEKFSTADLKGNFMLQSTSYEQELLNRIDTLMKQHDKIKEVITENYIAAHKILPKKKSTIFIVPSNSDFPTMSESLAGVTGAAYKDAFVLYLDQTFDKNVLAYTIAHEYHHLILHDTPDFKISSVLKSVIVEGKADAFADRIVKGVSPPWDVPMDNTTKKHVAGLVNNYETTFNDVTFGNEQKDIPRWSNYILGRDILNHYLKSNPNLSIKEWTYKDEHEILKDYKYQNILE | not soluble
13 | MSLFGIEVEEEASQIIHILLLQYISKSYSTYSLRSNQGYNPQTLDNNQQIYNSQLSNGNQQSEITCPYCHSTQVTAGKKGFGVGKAIVGGLLLGPVGLLGGLIGSKNIEFVYNCITLSASNNTNSAQWLREQSNNAKNIVNRYLDNDFAEALVAGSALVAMADGVIEYSERERLINYFKTSQEMKHIDTNMVLSKFDCYTQKLQRDFMMGKQNYEGHHHHHH | not soluble
14 | CGIVGAIAQRDVAEILLEGLRRLEYRGYDSAGLAVVDAEGHMTRLRRLGKVQMLAQAAEEHPLHGGTGIAHTRWATHGEPSEVNAHPHVSEHIVVVHNGIIENHEPLREELKARGYTFVSETDTEVIAHLVNWELKQGGTLREAVLRAIPQLRGAYGTVIMDSRHPDTLLAARSGSPLVIGLGMGENFIASDQLALLPVTRRFIFLEEGDIAEITRRSVNIFDKTGAEVKRQDIESNLQYDAGDKGIYRHYMQKEIYEQPNAIKNTLTGRISHGQVDLSELGPNADELLSKVEHIQILACGTSYNSGMVSRYWFESLAGIPCDVEIASEFRYRKSAVRRNSLMITLSQSGETADTLAGLRLSKELGYLGSLAICNVPGSSLVRESDLALMTNAGTEIGVASTKAFTTQLTVLLMLVAKLSKLKGLDASIEHDIVHGLQALPSRIEQMLSQDKRIEALAEDFSDKHHALFLGRGDQYPIALEGALKLKEISYIHAEAYAAGELKHGPLALIDADMPVIVVAPNNELLEKLKSNIEEVRARGGQLYVFADQDAGFVSSDNMHIIEMPHVEEVIAPIFYTVPLQLLAYHVALIKGTDVDQPRNLAKSVTVE | soluble
15 | MSLKIKLETYYVCKGELAMNPEVSQLLEQIELRKDELLELTKTLIRFETPAPPARNTNEAQQFVADFLRKRNFSVDKWDVYPNDPNVVGVKKGIESETHKSLIINGHMDVAEVSADEAWEKNPFEPFIKDGWLVGRGAADMKGGLAGALFAIQLLEEAGIELPGDLIFQSVIGEEVGEAGTLQCCRRGYDADFAVVVDTSDLHMQGQGGVITGWITVKSPQTFHDATRRQMIHAGGRLFGASAIEKMMKIVQSLQELERHWAVMKTYEGYPSGTTTINPAVIEGGRHAAFIADECRLWITVHFYPNETHEQIIKEIEEYIGKVAAADPWLSENPPQFKWGGESMIVDRGEIFPSLEIDSEHAAVKTLSSVHESVLSKHAILDMSATVTDGGWFSEFHIPAVIYGPGTLEEAHSINEKVEVEQLIEFTKVITAFIYEWCHTKEGHHHHHH | soluble
16 | MTNYIYPKFGYLRSKEQAEGIVKRHPIVVIGAGPVGLTAALDCAARGQPVVLLDDNDTVSIGSRAVCYAKRPLEIWNRLDCADPMVERGVSWNVGKVFFRDELSYQFDLLPESDHEWPAMINLQQYHLEEILVARCRASPLIDLRWKHRLISLKQAADHAELAVETPDGIFTMEAQWVIACDGANSDTRKMVGAEFKGQYFEDRFLIADVAMKADFPTERWFWFDPPFHPAQSVLLHRQADDIWRIDFQLGWDADPDEEKRPERVIPRIKAMLGEDTEFELEWVSIYQFACRRIDKFRHGRVLFAGDAAHQVSPFGARGANTGVQDIDNLAWKLAMVLRGEAPEALLDSYHDERAYAADDNILNSTRATDFITPKTKVSRHFRDAVLELAQHHGFARPLVNSGRLSTPTPYVTSPLNTFDDSLLDGEMRPGTNAADAPVTIGGKPDWFLNCLGAGFVVVTFDQAVDNERIEVGPIAARVIRVGRDIDDPRGVLASRYGTSTGTTYLFRPDQYVAARWAGFDEGKISAALLRATAQDAVRQKEIAALEHHHHHH | not soluble
17 | MSAALVAQQVATLREQGFAVVRNFASPPVRQALRELALQHLAQTVDPVEYEADLKYPGAPSSRLAAGGQTVRRLLDAYGRDQRFRDWATQAAIGAFLRAYFQDTPVLSTVHHNCIMTKHPAFGSLTGWHQDIRYWSFSDDDLVSCWLALGDERADNGGLYFVPGSHTASFMPEQYDARKFFRDDLPQNQEWIGRAVCPELQAGDVVFFHCRTLHAARQNATDTVKLSLVHTYHPASCHPLPGTRSAGSPGVPLPLEHHHHHH | not soluble
18 | TRGGDSAAAPLDPPKSTATRCLSCNKKVGVTGFKCRCGSTFCGTHRYPESHECQFDFKGVA | soluble
